Results taken from patent US12247072 (ASHER BIOTHERAPEUTICS, dated 2025).

Biological target: Recombinant human IL-21R, extracellular domain fused to 8x Histidine tag (generated in house) (human, UniProt Q9HBE5 20-232)
Test: SPR, 37 C
Protocol: Protein was not captured on flow cell 1 to serve as a reference surface. A serial dilution was generated for human IL-21R, in HBS-P+ buffer supplemented with 1 g/L BSA, starting at nominal concentrations between 20-5 µM, followed by six to seven 5-fold serial dilutions, and flowed over the surface-captured fusion protein for 2 minutes at 30 µL/min. Buffer was also flowed over the surface to serve as a blank subtraction. Dissociation was monitored for 5-10 minutes, and the anti-hIgG-Fc surface was regenerated with three 30 to 60-seconds injections of 75 mM phosphoric acid before recapturing fusion protein in each subsequent binding cycle. Binding data were double-referenced and analyzed by Biacore® Evaluation Software version 3.2 using steady-state affinity for very weak interactions, or when possible, a 1:1 Langmuir with mass transport model to determine kinetic rate constants (k_a, k_d) and K_D.

Recombinant human IL-21R, extracellular domain fused to 8x Histidine tag (generated in house), sequence (Q9HBE5 other isoform, or with tags, fused parts or gaps limits assumed): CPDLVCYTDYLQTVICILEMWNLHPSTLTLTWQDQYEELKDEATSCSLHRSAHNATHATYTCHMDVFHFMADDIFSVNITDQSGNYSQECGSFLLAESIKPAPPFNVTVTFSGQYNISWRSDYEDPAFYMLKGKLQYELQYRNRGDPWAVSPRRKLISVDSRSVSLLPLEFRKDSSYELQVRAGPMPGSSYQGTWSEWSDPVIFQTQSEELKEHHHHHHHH

| Binder | Kd | binding result |
| --- | --- | --- |
| xhCD8.1-hIL21 v2.7 (other, Human IgG1/kappa, knob-into-hole, L234A/L235A/G237A) VH: QVQLVQSGAEVKKPGSSVKVSCKASGGTFSSYAISWVRQAPGQGLEWMGGIIPGYATANYAQKFQGRVTITADESTSTAYMELSSLRSEDTAVYYCARDAAGIRLFADWGQGTLVTVSS VL: DIQMTQSPSSLSASVGDRVTITCRASQSIYGALNWYQQKPGKAPKLLIYGASNLQSGVPSRFSGSGSGTDFTLTISSLQPEDFATYYCQSTYTAPWTFGGGTKVEIK not shown | 156 nM |  |
| xhCD8.1-hIL21 v2.39 (other, Human IgG1/kappa, knob-into-hole, L234A/L235A/G237A) VH: QVQLVQSGAEVKKPGSSVKVSCKASGGTFSSYAISWVRQAPGQGLEWMGGIIPGYATANYAQKFQGRVTITADESTSTAYMELSSLRSEDTAVYYCARDAAGIRLFADWGQGTLVTVSS VL: DIQMTQSPSSLSASVGDRVTITCRASQSIYGALNWYQQKPGKAPKLLIYGASNLQSGVPSRFSGSGSGTDFTLTISSLQPEDFATYYCQSTYTAPWTFGGGTKVEIK not shown | 614 nM |  |
| xhCD8.1-hIL21 v2.42 (other, Human IgG1/kappa, knob-into-hole, L234A/L235A/G237A) VH: QVQLVQSGAEVKKPGSSVKVSCKASGGTFSSYAISWVRQAPGQGLEWMGGIIPGYATANYAQKFQGRVTITADESTSTAYMELSSLRSEDTAVYYCARDAAGIRLFADWGQGTLVTVSS VL: DIQMTQSPSSLSASVGDRVTITCRASQSIYGALNWYQQKPGKAPKLLIYGASNLQSGVPSRFSGSGSGTDFTLTISSLQPEDFATYYCQSTYTAPWTFGGGTKVEIK not shown |  | no binding (tested: highest concentration tested) |
| xhCD8.1-hIL21 v2.32 (other, Human IgG1/kappa, knob-into-hole, L234A/L235A/G237A) VH: QVQLVQSGAEVKKPGSSVKVSCKASGGTFSSYAISWVRQAPGQGLEWMGGIIPGYATANYAQKFQGRVTITADESTSTAYMELSSLRSEDTAVYYCARDAAGIRLFADWGQGTLVTVSS VL: DIQMTQSPSSLSASVGDRVTITCRASQSIYGALNWYQQKPGKAPKLLIYGASNLQSGVPSRFSGSGSGTDFTLTISSLQPEDFATYYCQSTYTAPWTFGGGTKVEIK not shown | 0.236 nM |  |
| xhCD8.1-hIL21 v2.36 (other, Human IgG1/kappa, knob-into-hole, L234A/L235A/G237A) VH: QVQLVQSGAEVKKPGSSVKVSCKASGGTFSSYAISWVRQAPGQGLEWMGGIIPGYATANYAQKFQGRVTITADESTSTAYMELSSLRSEDTAVYYCARDAAGIRLFADWGQGTLVTVSS VL: DIQMTQSPSSLSASVGDRVTITCRASQSIYGALNWYQQKPGKAPKLLIYGASNLQSGVPSRFSGSGSGTDFTLTISSLQPEDFATYYCQSTYTAPWTFGGGTKVEIK not shown | 125 nM |  |
| xhCD8.1-hIL21 v2.46 (other, Human IgG1/kappa, knob-into-hole, L234A/L235A/G237A) VH: QVQLVQSGAEVKKPGSSVKVSCKASGGTFSSYAISWVRQAPGQGLEWMGGIIPGYATANYAQKFQGRVTITADESTSTAYMELSSLRSEDTAVYYCARDAAGIRLFADWGQGTLVTVSS VL: DIQMTQSPSSLSASVGDRVTITCRASQSIYGALNWYQQKPGKAPKLLIYGASNLQSGVPSRFSGSGSGTDFTLTISSLQPEDFATYYCQSTYTAPWTFGGGTKVEIK not shown |  | no binding (tested: highest concentration tested) |
| xhCD8.1-hIL21 v2.28 (other, Human IgG1/kappa, knob-into-hole, L234A/L235A/G237A) VH: QVQLVQSGAEVKKPGSSVKVSCKASGGTFSSYAISWVRQAPGQGLEWMGGIIPGYATANYAQKFQGRVTITADESTSTAYMELSSLRSEDTAVYYCARDAAGIRLFADWGQGTLVTVSS VL: DIQMTQSPSSLSASVGDRVTITCRASQSIYGALNWYQQKPGKAPKLLIYGASNLQSGVPSRFSGSGSGTDFTLTISSLQPEDFATYYCQSTYTAPWTFGGGTKVEIK not shown | 0.693 nM |  |
| xhCD8.1-hIL21 v2.38 (other, Human IgG1/kappa, knob-into-hole, L234A/L235A/G237A) VH: QVQLVQSGAEVKKPGSSVKVSCKASGGTFSSYAISWVRQAPGQGLEWMGGIIPGYATANYAQKFQGRVTITADESTSTAYMELSSLRSEDTAVYYCARDAAGIRLFADWGQGTLVTVSS VL: DIQMTQSPSSLSASVGDRVTITCRASQSIYGALNWYQQKPGKAPKLLIYGASNLQSGVPSRFSGSGSGTDFTLTISSLQPEDFATYYCQSTYTAPWTFGGGTKVEIK not shown | 66.9 nM |  |
| xhCD8.1-hIL21 v2.41 (other, Human IgG1/kappa, knob-into-hole, L234A/L235A/G237A) VH: QVQLVQSGAEVKKPGSSVKVSCKASGGTFSSYAISWVRQAPGQGLEWMGGIIPGYATANYAQKFQGRVTITADESTSTAYMELSSLRSEDTAVYYCARDAAGIRLFADWGQGTLVTVSS VL: DIQMTQSPSSLSASVGDRVTITCRASQSIYGALNWYQQKPGKAPKLLIYGASNLQSGVPSRFSGSGSGTDFTLTISSLQPEDFATYYCQSTYTAPWTFGGGTKVEIK not shown | 104 nM |  |
| xhCD8.1-hIL21 v2.45 (other, Human IgG1/kappa, knob-into-hole, L234A/L235A/G237A) VH: QVQLVQSGAEVKKPGSSVKVSCKASGGTFSSYAISWVRQAPGQGLEWMGGIIPGYATANYAQKFQGRVTITADESTSTAYMELSSLRSEDTAVYYCARDAAGIRLFADWGQGTLVTVSS VL: DIQMTQSPSSLSASVGDRVTITCRASQSIYGALNWYQQKPGKAPKLLIYGASNLQSGVPSRFSGSGSGTDFTLTISSLQPEDFATYYCQSTYTAPWTFGGGTKVEIK not shown |  | no binding (tested: highest concentration tested) |
| xhCD8.1-hIL21 v2.34 (other, Human IgG1/kappa, knob-into-hole, L234A/L235A/G237A) VH: QVQLVQSGAEVKKPGSSVKVSCKASGGTFSSYAISWVRQAPGQGLEWMGGIIPGYATANYAQKFQGRVTITADESTSTAYMELSSLRSEDTAVYYCARDAAGIRLFADWGQGTLVTVSS VL: DIQMTQSPSSLSASVGDRVTITCRASQSIYGALNWYQQKPGKAPKLLIYGASNLQSGVPSRFSGSGSGTDFTLTISSLQPEDFATYYCQSTYTAPWTFGGGTKVEIK not shown | 2 nM |  |
| xhCD8.1-hIL21 v2.43 (other, Human IgG1/kappa, knob-into-hole, L234A/L235A/G237A) VH: QVQLVQSGAEVKKPGSSVKVSCKASGGTFSSYAISWVRQAPGQGLEWMGGIIPGYATANYAQKFQGRVTITADESTSTAYMELSSLRSEDTAVYYCARDAAGIRLFADWGQGTLVTVSS VL: DIQMTQSPSSLSASVGDRVTITCRASQSIYGALNWYQQKPGKAPKLLIYGASNLQSGVPSRFSGSGSGTDFTLTISSLQPEDFATYYCQSTYTAPWTFGGGTKVEIK not shown |  | no binding (tested: highest concentration tested) |
| xhCD8.1-hIL21 v2.20 (other, Human IgG1/kappa, knob-into-hole, L234A/L235A/G237A) VH: QVQLVQSGAEVKKPGSSVKVSCKASGGTFSSYAISWVRQAPGQGLEWMGGIIPGYATANYAQKFQGRVTITADESTSTAYMELSSLRSEDTAVYYCARDAAGIRLFADWGQGTLVTVSS VL: DIQMTQSPSSLSASVGDRVTITCRASQSIYGALNWYQQKPGKAPKLLIYGASNLQSGVPSRFSGSGSGTDFTLTISSLQPEDFATYYCQSTYTAPWTFGGGTKVEIK not shown |  | no binding (tested: highest concentration tested) |
| xhCD8.1-hIL21 v2.58 (other, Human IgG1/kappa, knob-into-hole, L234A/L235A/G237A) VH: QVQLVQSGAEVKKPGSSVKVSCKASGGTFSSYAISWVRQAPGQGLEWMGGIIPGYATANYAQKFQGRVTITADESTSTAYMELSSLRSEDTAVYYCARDAAGIRLFADWGQGTLVTVSS VL: DIQMTQSPSSLSASVGDRVTITCRASQSIYGALNWYQQKPGKAPKLLIYGASNLQSGVPSRFSGSGSGTDFTLTISSLQPEDFATYYCQSTYTAPWTFGGGTKVEIK not shown | 420 nM |  |
| xhCD8.1-hIL21 v2.33 (other, Human IgG1/kappa, knob-into-hole, L234A/L235A/G237A) VH: QVQLVQSGAEVKKPGSSVKVSCKASGGTFSSYAISWVRQAPGQGLEWMGGIIPGYATANYAQKFQGRVTITADESTSTAYMELSSLRSEDTAVYYCARDAAGIRLFADWGQGTLVTVSS VL: DIQMTQSPSSLSASVGDRVTITCRASQSIYGALNWYQQKPGKAPKLLIYGASNLQSGVPSRFSGSGSGTDFTLTISSLQPEDFATYYCQSTYTAPWTFGGGTKVEIK not shown | 1.3 nM |  |
| xhCD8.1-hIL21 v2.31 (other, Human IgG1/kappa, knob-into-hole, L234A/L235A/G237A) VH: QVQLVQSGAEVKKPGSSVKVSCKASGGTFSSYAISWVRQAPGQGLEWMGGIIPGYATANYAQKFQGRVTITADESTSTAYMELSSLRSEDTAVYYCARDAAGIRLFADWGQGTLVTVSS VL: DIQMTQSPSSLSASVGDRVTITCRASQSIYGALNWYQQKPGKAPKLLIYGASNLQSGVPSRFSGSGSGTDFTLTISSLQPEDFATYYCQSTYTAPWTFGGGTKVEIK not shown | 3.4 nM |  |
| xhCD8.1-hIL21 v2.30 (other, Human IgG1/kappa, knob-into-hole, L234A/L235A/G237A) VH: QVQLVQSGAEVKKPGSSVKVSCKASGGTFSSYAISWVRQAPGQGLEWMGGIIPGYATANYAQKFQGRVTITADESTSTAYMELSSLRSEDTAVYYCARDAAGIRLFADWGQGTLVTVSS VL: DIQMTQSPSSLSASVGDRVTITCRASQSIYGALNWYQQKPGKAPKLLIYGASNLQSGVPSRFSGSGSGTDFTLTISSLQPEDFATYYCQSTYTAPWTFGGGTKVEIK not shown | 0.419 nM |  |
| xhCD8.1-hIL21 v2.9 (other, Human IgG1/kappa, knob-into-hole, L234A/L235A/G237A) VH: QVQLVQSGAEVKKPGSSVKVSCKASGGTFSSYAISWVRQAPGQGLEWMGGIIPGYATANYAQKFQGRVTITADESTSTAYMELSSLRSEDTAVYYCARDAAGIRLFADWGQGTLVTVSS VL: DIQMTQSPSSLSASVGDRVTITCRASQSIYGALNWYQQKPGKAPKLLIYGASNLQSGVPSRFSGSGSGTDFTLTISSLQPEDFATYYCQSTYTAPWTFGGGTKVEIK not shown | 420 nM |  |
| xhCD8.1-hIL21 v2.37 (other, Human IgG1/kappa, knob-into-hole, L234A/L235A/G237A) VH: QVQLVQSGAEVKKPGSSVKVSCKASGGTFSSYAISWVRQAPGQGLEWMGGIIPGYATANYAQKFQGRVTITADESTSTAYMELSSLRSEDTAVYYCARDAAGIRLFADWGQGTLVTVSS VL: DIQMTQSPSSLSASVGDRVTITCRASQSIYGALNWYQQKPGKAPKLLIYGASNLQSGVPSRFSGSGSGTDFTLTISSLQPEDFATYYCQSTYTAPWTFGGGTKVEIK not shown | 601 nM |  |
| xhCD8.1-hIL21 v2.40 (other, Human IgG1/kappa, knob-into-hole, L234A/L235A/G237A) VH: QVQLVQSGAEVKKPGSSVKVSCKASGGTFSSYAISWVRQAPGQGLEWMGGIIPGYATANYAQKFQGRVTITADESTSTAYMELSSLRSEDTAVYYCARDAAGIRLFADWGQGTLVTVSS VL: DIQMTQSPSSLSASVGDRVTITCRASQSIYGALNWYQQKPGKAPKLLIYGASNLQSGVPSRFSGSGSGTDFTLTISSLQPEDFATYYCQSTYTAPWTFGGGTKVEIK not shown | 54.7 nM |  |
| xhCD8.1-hIL21 v2.29 (other, Human IgG1/kappa, knob-into-hole, L234A/L235A/G237A) VH: QVQLVQSGAEVKKPGSSVKVSCKASGGTFSSYAISWVRQAPGQGLEWMGGIIPGYATANYAQKFQGRVTITADESTSTAYMELSSLRSEDTAVYYCARDAAGIRLFADWGQGTLVTVSS VL: DIQMTQSPSSLSASVGDRVTITCRASQSIYGALNWYQQKPGKAPKLLIYGASNLQSGVPSRFSGSGSGTDFTLTISSLQPEDFATYYCQSTYTAPWTFGGGTKVEIK not shown | 2.8 nM |  |
